Earlier results, collected in publication PMC4078514, “A Bombesin-Shepherdin Radioconjugate Designed for Combined Extra- and Intracellular Targeting” (Pharmaceuticals, 2014).

Biological target: Hsp90 (Homo sapiens) (UniProt P07900)

Sequence of Shepherdin 79-83 (O15392 whole entry, looked up, tested part not stated): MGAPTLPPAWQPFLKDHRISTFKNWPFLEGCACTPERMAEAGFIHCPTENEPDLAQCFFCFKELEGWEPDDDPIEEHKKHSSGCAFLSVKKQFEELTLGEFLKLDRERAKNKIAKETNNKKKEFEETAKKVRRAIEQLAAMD

Kd: 0.08 µM
Substance: Shepherdin 79-83 (from UniProt O15392)
